# Laboratory results: publication PMC11088181, “Monocytes release cystatin F dimer to associate with Aβ and aggravate amyloid pathology and cognitive deficits in Alzheimer’s disease” (Journal of Neuroinflammation, 2024)
# B1: cystatin F in human plasma (natural protein, human (endogenous in plasma), UniProt O76096 20-145, looked up)
# chain: GPSPDTCSQDLNSRVKPGFPKTIKTNDPGVLQAARYSVEKFNNCTNDMFLFKESRITRALVQIVKGLKYMLEVEIGRTTCKKNQHLRLDDCDFQTNHTLKQTLSCYSEVWVVPWLQHFEVPVLRCH
# notes: cystatin F, secreted form in plasma; also called secreted cystatin F; cystatin F dimer; source: endogenous, human plasma (AD patients and controls)
# B2: native cystatin F in cultured monocytes (natural protein, UniProt O76096 20-145, looked up)
# chain: B1 chain
# notes: cystatin F of cultured monocytes; also called intracellular cystatin F protein; extracellular proteins; source: endogenous, cultured monocytes (intracellular and extracellular)
# Biological target: the molecule itself
# Assay: native gel or EMSA; nondenaturing gel (loading buffer without DTT) and western blot with anti-cystatin F; plasma diluted in PBS, or cultured monocytes
row,Protein,stoichiometry N
1,B1,2
2,B2,2
